Reference: the supplement of paper PMC7125110
± gives the standard error. Variants at the floor of the assay were thinned out.

B1: glmS ribozyme (parent)
chain: AUAAAAGCGCCAGAACUACAGAAAUGUAGUUGACGAGGAGGAGGUUUAUCGAAUUUUCGGCGGAUGCCUCCAAA

Experiments:
Conditions in all cases: with glucosamine-6-phosphate
glucosamine-6-phosphate [1] = variants of: B1; assay: self-cleavage kobs at 40 uM GlcN6P; higher = faster cleavage; RNA array
Procedure, shortened: (§1)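 kobs was derived by fitting per-tile medians to one- or two-exponential decays after normalising signals to baseline and to non-cleaving reference variants. Those signals came from barcoded ribozyme variants transcribed in situ by E. coli RNA polymerase on sequenced MiSeq chips, followed through a hybridised Cy3 probe at 37 °C and imaged over ~14 h. Glucosamine-6-phosphate (40 μM to 10 mM) in HEPES/KCl/Mg(OAc)2 buffer was flowed in. Weighted Michaelis–Menten fits across concentrations then gave kcat and KM.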

glucosamine-6-phosphate [2] = variants of: B1; assay: self-cleavage kobs at 160 uM GlcN6P; higher = faster cleavage; RNA array
Procedure, shortened: as §1

glucosamine-6-phosphate [3] = variants of: B1; assay: self-cleavage kobs at 640 uM GlcN6P; higher = faster cleavage; RNA array
Procedure, shortened: as §1

glucosamine-6-phosphate [4] = variants of: B1; assay: self-cleavage kobs at 2500 uM GlcN6P; higher = faster cleavage; RNA array
Procedure, shortened: as §1

glucosamine-6-phosphate [5] = variants of: B1; assay: self-cleavage kobs at 10000 uM GlcN6P; higher = faster cleavage; RNA array
Procedure, shortened: as §1

Variant	self-cleavage kobs at 40 uM GlcN6P (glucosamine-6-phosphate [1]) [s⁻¹]	self-cleavage kobs at 160 uM GlcN6P (glucosamine-6-phosphate [2]) [s⁻¹]	self-cleavage kobs at 640 uM GlcN6P (glucosamine-6-phosphate [3]) [s⁻¹]	self-cleavage kobs at 2500 uM GlcN6P (glucosamine-6-phosphate [4]) [s⁻¹]	self-cleavage kobs at 10000 uM GlcN6P (glucosamine-6-phosphate [5]) [s⁻¹]
C16G G35U	< 1e-05	< 1e-05	< 1e-05	< 1e-05	< 1e-05
C16A U55A	7.92e-05 ± 1.5e-05	–	–	0.000515 ± 0.00022	0.00285 ± 0.00043
C19A U31A	0.000156 ± 5.1e-05	–	–	0.00209 ± 0.001	0.00693 ± 0.0019
A15G U25A C50G C70U	6.43e-05 ± 1.3e-05	–	–	–	6.03e-05 ± 1.6e-05
A14U A39G G44A C50A C71A	< 1e-05	–	–	< 1e-05	< 1e-05
C16U G40U C68G	< 1e-05	< 1e-05	–	–	< 1e-05
A15C A33C C50G C61G	0.000147 ± 3.9e-05	–	–	–	0.000196 ± 3.4e-05
A14G U31A	0.00248 ± 0.00049	0.0027 ± 0.00061	0.00935 ± 0.0021	0.0146 ± 0.006	0.0669 ± 0.024
A14G U54C U69C	0.000416 ± 9.9e-05	–	0.0011 ± 0.00044	0.000161 ± 5.8e-05	0.0047 ± 0.0013
C16A G26A C68G	3.64e-05 ± 1.7e-05	–	–	–	3.65e-05 ± 1.5e-05
A15U G62U	< 1e-05	–	< 1e-05	< 1e-05	< 1e-05
A15U G62C	< 1e-05	–	< 1e-05	–	< 1e-05
A15U G62A	< 1e-05	< 1e-05	–	< 1e-05	< 1e-05
A14U A15G A53G	0.000126 ± 2.3e-05	–	–	–	0.0102 ± 0.0019
C16A C50G C68U	0.000143 ± 3.6e-05	–	–	–	0.000227 ± 6.2e-05
A14G G44U U49C	< 1e-05	–	–	–	–
A14G A39C G66A	9.51e-05 ± 2.2e-05	–	–	0.00447 ± 0.00085	0.00527 ± 0.0016
A15U C71U	0.000165 ± 1.3e-05	0.00037 ± 4.8e-05	0.00103 ± 9e-05	0.00528 ± 0.00075	0.00793 ± 0.0013
C16U C61G U65G	< 1e-05	–	–	–	–
C16U G59C	< 1e-05	–	< 1e-05	–	< 1e-05
G21U C67G	9.41e-05 ± 2.8e-05	–	–	0.000139 ± 4.1e-05	0.00119 ± 0.00023
C16U G38C A48G C50U U55G	< 1e-05	–	–	–	< 1e-05
C16A G59C	< 1e-05	–	< 1e-05	–	–
C16A U31C A42G G44U C70G	< 1e-05	–	–	–	–

Variant	self-cleavage kobs at 40 uM GlcN6P (glucosamine-6-phosphate [1]) [s⁻¹]	self-cleavage kobs at 160 uM GlcN6P (glucosamine-6-phosphate [2]) [s⁻¹]	self-cleavage kobs at 640 uM GlcN6P (glucosamine-6-phosphate [3]) [s⁻¹]	self-cleavage kobs at 2500 uM GlcN6P (glucosamine-6-phosphate [4]) [s⁻¹]	self-cleavage kobs at 10000 uM GlcN6P (glucosamine-6-phosphate [5]) [s⁻¹]
C16U U30G	4.04e-05 ± 1.4e-05	6.14e-05 ± 1.5e-05	0.000244 ± 6.5e-05	0.000944 ± 0.00032	0.00235 ± 0.00062
A14G U54G G66A	0.000476 ± 0.00011	–	–	–	0.0163 ± 0.0061
A14G A53U C71G	0.000153 ± 2.4e-05	–	0.000741 ± 0.00014	0.00038 ± 0.0001	–
A15U G29C A48G C71A	< 1e-05	–	–	–	–
C16G U69C	5.13e-05 ± 2e-05	–	–	–	0.000195 ± 5.5e-05
A14U G51A U57C G60U A64G U65G	< 1e-05	–	–	–	–
C16A U49C C71G	< 1e-05	–	–	–	< 1e-05
A15G G43U A48C	< 1e-05	–	–	< 1e-05	–
C16A G35U G43C C68U	< 1e-05	< 1e-05	< 1e-05	–	–
A15U A52U C70A	< 1e-05	–	–	–	–
A14U G29U G44U U56A	< 1e-05	–	–	–	–
A14G G59C	< 1e-05	–	< 1e-05	–	–
A14G C71G	0.00028 ± 3.6e-05	0.000718 ± 0.00016	0.00058 ± 7.9e-05	–	0.00586 ± 0.0014
A14G C71A	0.000515 ± 6.3e-05	0.000688 ± 0.00011	0.00337 ± 0.00085	0.0123 ± 0.0037	–
A15G U45A	0.00128 ± 0.00026	0.00318 ± 0.0012	0.025 ± 0.0066	0.046 ± 0.019	0.098 ± 0.043
A15U U55G C61U	< 1e-05	–	–	–	< 1e-05
A15G G32C G41A G60A C71U	< 1e-05	–	–	–	–
A15U A33U C61G	< 1e-05	–	–	–	–
A14U C16U	0.00025 ± 3.2e-05	0.000555 ± 0.00011	0.00297 ± 0.00042	0.00183 ± 0.0004	0.00789 ± 0.001
C16A U31A G32U G40C G41A C67U C68U	< 1e-05	–	–	–	< 1e-05
C16A G41C	< 1e-05	< 1e-05	< 1e-05	–	–
C16G G62U	< 1e-05	< 1e-05	< 1e-05	< 1e-05	< 1e-05
C16G C34G G60U C61G U65A C67G	8.29e-05 ± 1.8e-05	–	–	0.000198 ± 6.9e-05	–
